{
  "source": "the DeepSol protein solubility set",
  "data": [
    {"assay": "soluble on expression in E. coli; label from the status in PepcDB or PDB records", "values": [
      {"sequence": "MGSDKIHHHHHHMTSKLTEVSTPPQAAMPKSTLANEQENKVFIIGLPRTGTTSVSVALLEQGLTVAHQAFTKQAFMLADAVSDAPCFSDYQQLDKLFPNAKFVYLDRPLDKWLPSMQMLLGRMLVHLDKDKGRFHPVMKRSFNHCFDIWQVEDVFDEAHLTACYQRHQQQVMSYFAGRDDFISIDISVTGSLAKLLQFIDLAKPDTAEFRQLQYPQLQSQPQNFPQLNFPQLNFPQLNTGRNVASWDEYKHPNKISANASGPDKRKFFDYRL", "soluble on expression in E. coli": "not soluble"},
      {"sequence": "MGSDKIHHHHHHMLKNDRWITEQAAAGMLEPFQAGLIRHLDPEQHQRPVLSFGCSSFGYDLRLSAKEFLIFRHVPGTVMNPKRFNPANLESTPLHQDEDGEYFILPAHSYGLGVALEKMKVPSNITVICLGKSTYARLGIIVNTTPAEASWEGHLTLEFSNSSGADCRIYANEGICQLLFFEGDPCDTTYSDRQGKYQHQPERVTLARI", "soluble on expression in E. coli": "not soluble"},
      {"sequence": "MAHHHHHHMTRPRLTSAPRGSALKEAISAHQALRNAVAQEQSALDDELKKNEQILAEHEQLMRDWSCDKEGVLATIQKMKEKIAENESKTTEARAEVKQNEEIVKRLHARNEEYEPRLEASAIEIAERLKKREEEEKEMREQLLTFQIACQEREQQYRDQIHKLEETNAQEAVDHQQKVQQLRSKIAEVEATMEEERRAWVVETEMRKQQRLIERHKFFTEEAEEARKGKEACAAIMKEASALRMDSNLLTSLDDLLCC", "soluble on expression in E. coli": "not soluble"},
      {"sequence": "MMEGLDDGPDFLSEEDRGLKAINVDLQSDAALQVDISDALSERDRVNFTVHTKSSLPNFKQNEFSVVRQHEEFIWLHDSFVENEDYAGYIIPPAPPRPDFDASREKLQKLGEGEGSMTKEEFTKMKQELEAEYLAIFKKTVAMHEVFLCRVAAHPILRKDLNFHVFLEYNQDLSVRGKNKKEKLEDFFKNMVKSADGVIVSGVKDVDDFFEHERTFLLEYHNRVKDASAKSDRMTRSHKSAADDYNRIGSSLYALGTQDSTDICKFFLKVSELFDKTRKIEARVSADEDLKLSDLLKYYLRESQAAKDLLYRRSRSLVDYENANKALDKARAKNKDVLQAETSQQLCCQKFEKISESAKQELIDFKTRRVAAFRKNLVELAELELKHAKGNLQLLQNCLAVLNGDT", "soluble on expression in E. coli": "soluble"},
      {"sequence": "MSHFTQLKTKLTNRDCLVQALEDLKLQPHVFEQPQPLAGYYMDSQGYSAEIIIFGRTIKARADIGFRWNQSSGVYEVIHDEYETSPRLGEDFFSHKLMQTYGRRMVLAKTEELREKFGECTISEETKGQVQTLRLTFAGHQEVKQYARRLEHHHHHH", "soluble on expression in E. coli": "not soluble"},
      {"sequence": "MAHHHHHHMTVNNSNNNNNGERLGSGTARLFVGQLNFDATEHDLRQIFSFYGHVIHTNVLRDADGKSTGSGFVTFRVTDEADFAIMSMHDRYNMGREKPLQVSYCRRSERISPFGYEHAMKLREKNTTNPPPPQPTSS", "soluble on expression in E. coli": "soluble"},
      {"sequence": "MWLPTPLGPLWLEVSPLGVRRLEPALYPRGPEAEGALALRVREAVQAYFAGERPDFLDLPLDYTGLSPARLRLYERVRLVPYGRTVSYGALGRELGLSPRAVGAALRACPFFLLVPAHRVIHADGRLGGFQGQEGLKLWLLRFEGAL", "soluble on expression in E. coli": "soluble"},
      {"sequence": "DALHDQASALFKPIPEQVTELRGQPISEQQRELGKKLFFDPRLSRSHVLSCNTCHNVGTGGADNVPTSVGHGWQKGPRNSPTVFNAVFNAAQFWDGRAKDLGEQAKGPIQNSVEMHSTPQLVEQTLGSIPEYVDAFRKAFPKAGKPVSFDNMALAIEAYEATLVTPDSPFDLYLKGDDKALDAQQKKGLKAFMDSGCSACHNGINLGGQAYFPFGLVKKPDASVLPSGDKGRFAVTKTQSDEYVFRAAPLRNVALTAPYFHSGQVWELKDAVAIMGNAQLGKQLAPDDVENIVAFLHSLSGKQPRVEYPLLPASTETTPRPAE", "soluble on expression in E. coli": "soluble"},
      {"sequence": "RAKLMEERETSLKDSVEVAFDAVRLIANNPNLSEAEAKQQVKAVLTNIRYGSDGYFFAYDAQGTNLVHPIQPELVGQNLWQLQDERGDFLIQ", "soluble on expression in E. coli": "not soluble"},
      {"sequence": "NLSSEYVKDIYAYLRQLEAAQAVRPKYLLGREVTGNMRAILIDWLVQVQMKFRLLQETMYMTVSIIDRFMQNNSVPKKMLQLVGVTAMFIASKYEEMYPPEIGDFAFVTDNTYTKHQIRQMEMKILRALNFGLGRPLPLHFLRRASKIGEVDVEQHTLAKYLMELTMLDYDMVHFPPSQIAAGAFSLALKILDNGEWTPTLQHYLSYTEESLLPVMQHLAKNVVMVNQGLTKHMTVKNKYATSKHAKISTLPQLNSALVQDLAKAVAKV", "soluble on expression in E. coli": "soluble"},
      {"sequence": "MTPRIIVTDMDGTLLNSEHEIPARFWPLLDEMHEQGIVFAPASGRQLYTLLDQFAQAGKDLSVIAENGTVVYHEGEIISVTTIDPEVAHRVIRTMAHSDLDWGVVVCRVDGAFIARGDVEFLTETVRYYAKLDVVDDLHSVVNDQVIKLAIYSFPDAETVAAPALAESVGDHTLAISGAHWIDIMSPHANKGVALQQLADNLGVPIEHTAAFGDYLNDYELLHTAGTAYAMSNAHPDIKDIADHVVGSNDEESVLTTIHSLLTAAK", "soluble on expression in E. coli": "not soluble"},
      {"sequence": "MAAQRRSLLQSEQQPSWTDDLPLCHLSGVGSASNRSYSADGKGTESHPPEDSWLKFRSENNCFLYGVFNGYDGNRVTNFVAQRLSAELLLGQLNAEHAEADVRRVLLQAFDVVERSFLESIDDALAEKASLQSQLPEGVPQHQLPPQYQKILERLKTLEREISGGAMAVVAVLLNNKLYVANVGTNRALLCKSTVDGLQVTQLNVDHTTENEDELFRLSQLGLDAGKIKQVGIICGQESTRRIGDYKVKYGYTDIDLLSAAKSKPIIAEPEIHGAQPLDGVTGFLVLMSEGLYKALEAAHGPGQANQEIAAMIDTEFAKQTSLDAVAQAVVDRVKRIHSDTFASGGERARFCPRHEDMTLLVRNFGYPLGEMSQPTPSPAPAAGGRVYPVSVPYSSAQSTS", "soluble on expression in E. coli": "soluble"},
      {"sequence": "MSLKEENYRNQVTEDFEQKKQALPHGDLFTVFSNPDLSVYEQEALMFLYAYMPIGDVTDYSGDYYLENVRLSGQTRTEMPWGDLIPDELFRHFVLPIRVNNENLDDSRRVFYGELKDRVKHLSMKDAILEVNHWCHEKVVYRPSDARTSSPLASVKTAYGRCGEESTFTVAALRSVGIPARQVYTPRWAHTDDNHAWVEAWADGQWYFFGACEPEPVLNLGWFNAPASRGMLMHTKVFGRYTGPEEIMLETPNYTEINVIDNYAPTAKATVTVTDTEGHPVSGAKVEFKIYNYAEFYTVATKYTDAEGKAFLTAGKGDMLVWASRDGKFGYAKLSFGKEDALKLSLDKKVGESYTLPMDIVPPVEGANLPEVTPEQRAENDHRMTQEDSIRNAYVATMMTDEQAKEWVNGLYGNILQPETMKDKLAAFLVASRGNHQTLKDFLSAIRKEKKHISWEEMRGMWLLENISAKDLRDVTLDVLNDHLKNTSDGEKTDTDLVKRALLNPRIANEMLTPYKKILYDAISEAVLKSAPVDAAHDAKALIEWCRKEIKIDNELNSQQIPVSPMGVWKSRVADEKSRDIFFVAAARSIGIPAWIDEVTGKVQYVSDGLSPQDVNFETSQSTQSCTGMLKASYTPIRSLSDPKYYSHFTISKFKNGTFQLLNYDEGDVDMGGGATWSNLLKNGVKLDEGYYMMVTGTRLASGAVLSNTTFFTIEPDKTTTVDLVMRESKDQVQVIGNFNSEATYRPVGGTDLQSILQTCGRGYFVVAVLGVGQEPTNHALRDIAALRSEFEQWGRKMVFLFPSEEQYKKFNTHEFKDLPSTIVYGIDVDNSIQKQIVDAMKLNQSTLPVFIIADTFNRVVFVSQGYTIGLGEQLMKVVHGEGHHHHHH", "soluble on expression in E. coli": "soluble"},
      {"sequence": "MGSDKIHHHHHHSEDINRNPLLPTKEDEKMDGVIYGAYLPNLEKSVIPIGTASESTEPVNRYQIGVNLAGDAWAGYMSPRDNKFNGSKNFTNYFMYENWVNYVYSFMVTDVYSPWMQIKRISQDEGTRNDEIYALAQIIKIAALHRTTDMFGPIPYSQVGKGSFKVAYDSQESVYRSFLKELEEAVQTLDDYSNKSKEVLPAFDIVYNGDVNKWMRFANSLMLRLAIRVRFADAGLAKEYAEKAVKHPAGLINSKELAAQMGKGAGLQMKNPLKVINEEYNDTRMGATIYSYLAGYNDARAAVYFVKNNGFKAVRCGIAKSGDAYNGFTRPNVHEDDPLYWMKASEVCFLKAEGALAGFDMGGSAGDFYNAGIRMSFSENGLDNSSAETYLKDSTRKPANYTDTSNGELSANAPSSITIRWENGATEEEKLERIITQKYLAIFPNGQEAWTEWRRTGYPRQIVVAENKTNSAVLIGNGYDLGGVRRLPYPRTEYEQNGENLHNAISQYLGGVDNAATKVWWDKKSK", "soluble on expression in E. coli": "not soluble"},
      {"sequence": "MTEKKLLMGNEAIAFGAIEAGVQVVTGYPGTPSTEALETIARHAEKCGVYAEWSSNEKVALETAAGAAYSGAKALVTMKQVGLNVASDPLMSLTYIGVKGALVLLVADDPGPHSSQTEQDTRSFGHFANIPVLDPASPQEAYELTKLAFEISHQFEVPVILRTTTRVSHSSGDVELLNSEPSPVEAFC", "soluble on expression in E. coli": "not soluble"},
      {"sequence": "MPDTSPDLPAMSPLAVYRQAVEQRGFAPDEAQRRAAEALERCFQALHEAHRHGAIQGVYLWGPVGRGKTWLMDHFYQCLRVPARRQHFHHFMQWVHQRQFELTGTADPLRALARELARDVRVLCFDELFVSDIGDAILLGSLLRIMFEEGVVLVATSNQPPEQLYADGFNRERFLPAIEAIQRHMAVVAVDGGQDHRLHPGRAEQRYWVVEAGQASGFAELFARLSAGEAASTQPIELGHRPLAVHRHSESVLWCSYAQLCEAPLSALDFIGLCDRYRAILMDDLPCLSASQREGRIARGTEDGAQLVEAGDRELPQLSVHDDGVRRFIALVDECYDRKVPLYLEARVPLEALYTEGYLAFAFRRTLSRLREMQLARFGSDSAG", "soluble on expression in E. coli": "not soluble"},
      {"sequence": "MGSSHHHHHHGKTIFVIVPTNEEQVAFLEALAKQDELNFDWQNPPTEPGQPVVILIPSDMVEWFLEMLKAKGIPFTVYVEEGGSENLYFQGGGGGGMDLDAFLSKNNKKSSKKVAKKSADEAALGGFGLETVPRVSTAAAKPITVANTGGSDASAAAGTASPLPAPEKTVAAPVVAVNLNFAGTTRSAKTWDAVKASQDSKRQEEVQAAAARKAKEEAEAAERKAAAGGDDDEVQLPESSPKETKVAKFVARGHRNATGAIGGGEGGAAAAASGRFAPHTQGLSLENLPTLEETFGNARKPSQSTASQSQSQQQPMSLPSQEQNGESAPAATPQESSSTPTSATAVAGSNKYVPPSKSSSTMESSTTLPSSPMPTRGSAGGSSAAAYRPPSGSSGVYKPPSMGAYRPPNASAGEAYKPPAPSAPSSGAGAYKPPTPGGASAGAYRPPASTGEAYKPPSSGGAGVYKPPSAGNSNAGAFKPSTAAGFSADTYKPPVAGSGSSAGAYKPPSAGGSAGVYKPPSKREA", "soluble on expression in E. coli": "soluble"},
      {"sequence": "MRKYRLSEEQRAFSYQEDGTKKSVLLRQIIAISDFNDVIAGTAGGWIDRETVLAQEGNCWIYDQNAIAFGGTVISGNTRITGTSVLWGEVYATDNVWIDNSEISQGAYISDSVTIHDSLVYVQCRIFGHALIDQHSMIVAAQGLTPDHQLLLQIYDRARVSASRIVHQAQIYGDAVVRYAFIEHRAEVFDFASVEGNEENNVWLCDCAKVYGHAQVKAGIEEDAIPTIHYSSQVAEYAIVEGNCVLKHHVLIGGNAVVRGGPILLDEHVVIQGESRITGAVIIENHVELTDHAVVEAFDGDTVHVRGPKVINGEERITRTPLAGLLLEHHHHHH", "soluble on expression in E. coli": "not soluble"},
      {"sequence": "GPGSMLRWQMQPVRTSVRNFIASGFPSKKLRYARLVDVEECASRPQFQKLLQSYLSDFFAKSHENGSTGSSPWFTAVPPSLRNSVEETVNYLGMLVAIDFRHWGEDPPDATPTGSRVENICGFYAELPEGSAETSGSVSYGGKRLIRGSMAMVHLLCRAVEVYHLNWHCPQFLQQFATTEDAMEALERCFLGYREDGHTSMWMPAARERVELLLSLSRSLVEKDTSFFKMLCLSEGYLYHPIFPHLGFVEMLVELHPRYYDVCVLRGEVGGGKDSDQGDEIVIPMLKLAQLTVMAIEEAVSAMDTVAANTPNVTEAPFPFSGAHGVFKDKHHLTVCCDYQLPKALRSLGLVEYDSYLASLVDTGVLLAAGGVEECCIRVAALVASDLLLDYLRSSCACTTGREWRPESTSRVWDAPALDCMLWWIGRHYVDSAVKHHLCRTIMY", "soluble on expression in E. coli": "not soluble"}
    ]}
  ]
}
